B1: Tyrosine-protein kinase-interacting protein (Saimiriine herpesvirus 2 (strain 488) (SaHV-2)), P22575 (parent)
chain: MANEGEEIELTEFPETEKERKDEEKLSSCSEETTNTSSSSGSDHVPVPIEVNVIIQNSSRTEDELQNSKEIELTGFQGKLSSCSEETTAPSSSYSSKQASVFIEENGDNETSTYRPQNVLTNLNSLYTTFEDARAQGKGMVRHKSEDLQSFLEKYPPDFRKPKRDLSATWDPGMPTPPLPPRPANLGERQASTVRLHVKESNCKQPRERKANERNIVKDLKRLENKINVIICLVVVILAVLLLVTVLSILHIGMKS

How the values were obtained:
lck_human LCK, P06239 = variants of: B1; conditions: with lck_human LCK
cd4_human CD4, P01730 = variants of: B1; conditions: with cd4_human CD4, P01730

Sequence of lck_human LCK, P06239 (P06239 whole entry, looked up): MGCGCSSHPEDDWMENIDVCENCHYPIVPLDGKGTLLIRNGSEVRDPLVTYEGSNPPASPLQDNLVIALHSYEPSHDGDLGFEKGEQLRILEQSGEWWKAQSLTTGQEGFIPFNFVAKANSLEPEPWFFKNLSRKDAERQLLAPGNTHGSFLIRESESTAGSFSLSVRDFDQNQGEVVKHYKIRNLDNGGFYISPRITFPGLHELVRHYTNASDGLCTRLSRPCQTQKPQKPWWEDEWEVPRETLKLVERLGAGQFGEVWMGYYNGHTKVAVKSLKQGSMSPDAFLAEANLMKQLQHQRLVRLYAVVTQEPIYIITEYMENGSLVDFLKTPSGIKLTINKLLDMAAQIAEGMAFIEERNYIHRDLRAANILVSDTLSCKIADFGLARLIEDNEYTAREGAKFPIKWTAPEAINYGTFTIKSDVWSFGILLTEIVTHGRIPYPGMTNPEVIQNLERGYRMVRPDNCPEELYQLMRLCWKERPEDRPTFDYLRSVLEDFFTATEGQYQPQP

Variant	effect of a mutation on the interaction (lck_human LCK, P06239)	effect of a mutation on the interaction (cd4_human CD4, P01730)
MANEGEEIELTEFPETEKERKDEEKLSSCSEETTNTSSSSGSDHVPVPIEVNVIIQNSSRTEDELQNSKEIELTGFQGKLSSCSEETTAPSSSYSSKQASVFIEENGDNETSTYRPQNVLTNLNSLYTTFEDARAQGKGMVRHKSEDLQSFLEKYPPDFRKPKRDLSATWDPGMPTAPLPPRPANLGERQASTVRLHVKESNCKQPRERKANERNIVKDLKRLENKINVIICLVVVILAVLLLVTVLSILHIGMKS [P177A]	decreasing interaction	
MANEGEEIELTEFPETEKERKDEEKLSSCSEETTNTSSSSGSDHVPVPIEVNVIIQNSSRTEDELQNSKEIELTGFQGKLSSCSEETTAPSSSYSSKQASVFIEENGDNETSTYRPQNVLTNLNSLYTTFEDARAQGKGMVRHKSEDLQSFLEKYPPDFRKPKRDLSATWDPGMPTPPLPPRAANLGERQASTVRLHVKESNCKQPRERKANERNIVKDLKRLENKINVIICLVVVILAVLLLVTVLSILHIGMKS [P183A]	decreasing interaction	decreasing interaction
MANEGEEIELTEFPETEKERKDEEKLSSCSEETTNTSSSSGSDHVPVPIEVNVIIQNSSRTEDELQNSKEIELTGFQGKLSSCSEETTAPSSSYSSKQASVFIEENGDNETSTYRPQNVLTNLNSLYTTFEDARAQGKGMVRHKSEDLQSFLEKYPPDFRKPKRDLSATWDPGMPTPALPPRPANLGERQASTVRLHVKESNCKQPRERKANERNIVKDLKRLENKINVIICLVVVILAVLLLVTVLSILHIGMKS [P178A]	decreasing interaction	decreasing interaction
MANEGEEIELTEFPETEKERKDEEKLSSCSEETTNTSSSSGSDHVPVPIEVNVIIQNSSRTEDELQNSKEIELTGFQGKLSSCSEETTAPSSSYSSKQASVFIEENGDNETSTYRPQNVLTNLNSLYTTFEDARAQGKGMVRHKSEDLQSFLEKYPPDFRKPKRDLSATWDPGMATPPLPPRPANLGERQASTVRLHVKESNCKQPRERKANERNIVKDLKRLENKINVIICLVVVILAVLLLVTVLSILHIGMKS [P175A]	decreasing interaction	decreasing interaction
MANEGEEIELTEFPETEKERKDEEKLSSCSEETTNTSSSSGSDHVPVPIEVNVIIQNSSRTEDELQNSKEIELTGFQGKLSSCSEETTAPSSSYSSKQASVFIEENGDNETSTYRPQNVLTNLNSLYTTFEDARAQGKGMVRHKSEDLQSFLEKYPPDFRKPKRDLSATWDPGMPTPPLAPRPANLGERQASTVRLHVKESNCKQPRERKANERNIVKDLKRLENKINVIICLVVVILAVLLLVTVLSILHIGMKS [P180A]	decreasing interaction	decreasing interaction
